What was measured:
Type in all cases: cell-based, mouse
CD4-HNF/GFP-T ES cells = test: Activin A / Wnt3a induction of ES derived primitive streak like cells in serum free culture, with pathway inhibitors; conditions: serum free
Procedure: FIGS. 34A, 34B and 34C depict ES cells differentiated in serum free conditions with Activin A Wnt3a and/or inhibitors of these pathways. ES cells were cultured in serum free media for two days then trypsinized to obtain a single cell population. These cells were then reaggregated with the indicated conditions. At day six, the EBs were plated on matrigel coated dishes in serum free media.
Liu et. al. (1999) Nat. Genet. 22: 361-4. […] Activin stimulation leads to high levels of CD4 expression that persist after loss of GFP-Bry expression at day 6. […] Wnt does however stimulate expression of the posterior primitive streak markers HoxBI and Tbx6, while activin only induces Tbx6. […] At day 6, EBs that were stimulated with either activin or Wnt3a were plated on matrigel in serum free media to allow further development.
Considering that Wnt stimulation induces nodal and activin treatment induces Wnt3 (FIG. 34B), it is unknown whether activin/nodal signaling or Wnt Signaling alone can induce primitive streak formation or whether both factors are required together. CD4-HNF/GFP-T ES cells were induced with either activin or Wnt in conjunction with specific inhibitors of these pathways. DKK1 was used to inhibit Wnt signaling while the small molecule inhibitor SB-431542 (SB) was used to block Nodal/TGFβ signaling. DKK1 functions by binding the Wnt co-receptors, LRP5 and LRP6, which are essential for activation of the βcatenin signaling pathway. […] Inman et. al. (2002) MoI. Pharmacol. 62: 65-74. […] Therefore, to induce mesoderm and endoderm germ layers and their derivative tissues, both activin/Nodal and Wnt signals are required initially.

EBs = test: Hematopoietic progenitor potential of activin-induced EBs; conditions: day 7 activin-induced EBs, no serum
Procedure: FIGS. 24A and 24B show the hematopoietic progenitor content of EBs differentiated in the presence of different concentrations of activin. A) Progenitor potential of day 7 EBs, Ep are primitive erythroid progenitors, mac/mix represent definitive hematopoietic progenitors. B) Progenitor potential of day 7 activin-induced EBs following 2.5 days of exposure to serum.
For the generation of blast cell colonies (BL-CFC assay), EB-derived cells were plated at 0.5×-1.5×10^5 cells/ml in 1% methylcellulose supplemented with 10% FCS (Hyclone), vascular endothelial growth factor (VEGF; 5 ng/ml), c-kit ligand (KL; 1% conditioned medium), IL-6 (5 ng/ml) and 25% D4T endothelial cell conditioned medium (Kennedy et al. (1997) Nature 386:488-93). Transitional colonies were generated in the absence of VEGF. Colonies were scored following four days of culture. […] Primitive erythroid colonies were scored at day 5-6 of culture, whereas definitive erythroid (BFU-E), macrophage, and multilineage colonies were counted at 7-10 days of culture. […]
To further evaluate the hematopoietic potential of these EBs, they were analyzed for progenitor potential.

[1] = tested on: GFP^+ hCD4^med cells from CD4-HNF/GFP-T ES cells; test: Reaggregation of sorted GFP^+ hCD4^med cells in serum free media with DKK1 and/or activin
Procedure: FIGS. 35A and 35B depict, the effects of DKK1 and activin on EB differentiation. EBs differentiated and sorted as in FIG. 32 for GFP^+ hCD4^med were allowed to reaggregate in serum replacement containing media alone or with the addition of human DKK1 100 ng/ml, activin 100 ng/ml, or both factors together. […] FIG. 35B depicts endodermal gene expression by RT PCR. The sorted populations were treated as indicated above for 2 days, then plated on matrigel in serum free media without factors added. Gene expression was analyzed an additional 5 days after plating.
Nodal, a key molecule involved in mesoderm/endoderm induction in vivo, signals through the same receptors as activin. It is also known that Nodal as well as inhibitors for Wnt signaling are expressed preferentially in or around the anterior primitive streak. Considering that the endoderm forms from the anterior primitive streak, it is possible that nodal/activin signaling in combination with inhibition of Wnt signals induces endoderm formation. To test this hypothesis, CD4-HNF/GFP-T ES cells were differentiated for 3.25 days in serum and GFP^+ hCD4^med cells were sorted and reaggregated in serum free media with no factor, DKK1 (Wnt inhibitor), activin, or activin and DKK1. The effect of these culture conditions on hCD4-HNF3β and GFP-Bry levels were analyzed by flow cytometry (FIG. 35A). With serum free media alone, hCD4 expression was lost after 1 day reaggregation. […] To further test this idea, sorted cells reaggregated for two days in the culture conditions above were washed with serum free media without factors and plated onto martrigel in serum free media. After 5 days, the cultures were harvested and gene expression determined by RT PCR. […] These culture conditions have the potential to allow the large scale production of endodermal derived tissues such as the pancreas and liver.

[2] = tested on: EBs (HNF3β, Hex1 expression); test: Antibody staining for HNF3β and Hex1 in activin-induced EBs
Procedure: To better estimate the proportion of endodermal progenitors in the activin-induced EBs, cells from cultures stimulated with 100 ng/ml activin were stained with antibodies against HNF3β and Hex1. EBs from un-induced cultures were used as controls (Activin-). A significant portion of the activin induced population (estimated at 50-60% of total) expressed both HNF3β and Hex1. None of the cells in the un-induced EBs expressed these proteins.
To quantify the differential response of activin, cells stimulated with different concentrations of activin were adhered to coverslips and stained with the anti-HNF3β antibody. More than 50% of the entire EB population stimulated with 100 ng/ml of activin expressed HNF3β whereas only 10% of the cells stimulated with 3 ng/ml were positive.

B1: activin: growth factor purchased from R&D systems; induces mesoderm and endoderm (protein, UniProt P08476 311-426, looked up)
Inhibin beta A chain: GLECDGKVNICCKKQFFVSFKDIGWNDWIIAPSGYHANYCEGECPSHIAGTSGSSLSFHSTVINHYRMRGHSPFANLKSCCVPTKLRPMSMLYYDDGQNIIKKDIQNMIVEECGCS
endodermal gene expression (Alb, Aat, HNF4, Pdxl) by RT-PCR (CD4-HNF/GFP-T ES cells; day 6 EBs plated on matrigel a further 6 days): allowed development of cells expressing the endodermal genes Alb, Aat, HNF4, and Pdxl | induction of GFP^+ CD4^+ cells (CD4-HNF/GFP-T ES cells; Activin A 25 ng/ml or Wnt3a 100 ng/ml): initially induce GFP^+ CD4^+ cells | primitive (Ep) or definitive (mac/mix) hematopoietic progenitors (EBs): no appreciable numbers | endoderm gene expression by RT PCR (pancreas, liver, intestine genes) ([1]; 2 days treatment, then 5 days on matrigel without factors): Very low levels of just two of the genes, Pdxl and ALB | hCD4 (HNF3β) level by flow cytometry ([1]; after 1 day reaggregation, DKK1 100 ng/ml, activin 100 ng/ml): retention of HNF3β levels similar to newly sorted cells | cells positive for HNF3β ([2]; activin 3 ng/ml, anti-HNF3β antibody): 10% | entire EB population expressing HNF3β ([2]; activin 100 ng/ml, anti-HNF3β antibody): More than 50% | portion of population expressing both HNF3β and Hex1 ([2]; activin 100 ng/ml, antibody staining, estimated): 50-60 % of total
